B1: Peptide 15: Ac-Nle-c[Asp-(NMe)His-nal-(NMe)Arg-Trp-Lys]-NH2 (peptide)
peptide: LDHXRWK
modifications: N-terminal acetyl; Nle at 4; D-Nal(2') (nal) at 7; Asp5-Lys10 side-chain lactam ring; C-terminal amide; backbone N-methyl on His6 and Arg8 (alpha-MSH numbering 4-10)
B2: Peptide 19: Ac-Nle-c[Asp-(NMe)His-nal-Arg-(NMe)Trp-(NMe)Lys]-NH2 (peptide)
peptide: LDHXRWK
modifications: N-terminal acetyl; Nle at 4; D-Nal(2') (nal) at 7; Asp5-Lys10 side-chain lactam ring; C-terminal amide; backbone N-methyl on His6, Trp9 and Lys10 (alpha-MSH numbering 4-10)
B3: Peptide 4: Ac-Nle-c[Asp-His-nal-(NMe)Arg-Trp-Lys]-NH2 (peptide)
peptide: LDHXRWK
modifications: N-terminal acetyl; Nle at 4; D-Nal(2') (nal) at 7; Asp5-Lys10 side-chain lactam ring; C-terminal amide; backbone N-methyl on Arg8 (alpha-MSH numbering 4-10)
B4: Peptide 11: Ac-Nle-c[Asp-His-nal-(NMe)Arg-(NMe)Trp-Lys]-NH2 (peptide)
peptide: LDHXRWK
modifications: N-terminal acetyl; Nle at 4; D-Nal(2') (nal) at 7; Asp5-Lys10 side-chain lactam ring; C-terminal amide; backbone N-methyl on Arg8 and Trp9 (alpha-MSH numbering 4-10)
B5: Peptide 2: Ac-Nle-c[Asp-His-nal-Arg-Trp-(NMe)Lys]-NH2 (peptide)
peptide: LDHXRWK
modifications: N-terminal acetyl; Nle at 4; D-Nal(2') (nal) at 7; Asp5-Lys10 side-chain lactam ring; C-terminal amide; backbone N-methyl on Lys10 (alpha-MSH numbering 4-10)
B6: Peptide 6: Ac-Nle-c[Asp-(NMe)His-nal-Arg-Trp-Lys]-NH2 (peptide)
peptide: LDHXRWK
modifications: N-terminal acetyl; Nle at 4; D-Nal(2') (nal) at 7; Asp5-Lys10 side-chain lactam ring; C-terminal amide; backbone N-methyl on His6 (alpha-MSH numbering 4-10)
B7: Peptide 28: Ac-Nle-c[Asp-(NMe)His-nal-(NMe)Arg-(NMe)Trp-(NMe)Lys]-NH2 (peptide)
peptide: LDHXRWK
modifications: N-terminal acetyl; Nle at 4; D-Nal(2') (nal) at 7; Asp5-Lys10 side-chain lactam ring; C-terminal amide; backbone N-methyl on His6, Arg8, Trp9 and Lys10 (alpha-MSH numbering 4-10)
B8: Peptide 3: Ac-Nle-c[Asp-His-nal-Arg-(NMe)Trp-Lys]-NH2 (peptide)
peptide: LDHXRWK
modifications: N-terminal acetyl; Nle at 4; D-Nal(2') (nal) at 7; Asp5-Lys10 side-chain lactam ring; C-terminal amide; backbone N-methyl on Trp9 (alpha-MSH numbering 4-10)
B9: Peptide 8: Ac-Nle-c[Asp-His-nal-(NMe)Arg-Trp-(NMe)Lys]-NH2 (peptide)
peptide: LDHXRWK
modifications: N-terminal acetyl; Nle at 4; D-Nal(2') (nal) at 7; Asp5-Lys10 side-chain lactam ring; C-terminal amide; backbone N-methyl on Arg8 and Lys10 (alpha-MSH numbering 4-10)
B10: Peptide 7: Ac-Nle-c[Asp-His-nal-Arg-(NMe)Trp-(NMe)Lys]-NH2 (peptide)
peptide: LDHXRWK
modifications: N-terminal acetyl; Nle at 4; D-Nal(2') (nal) at 7; Asp5-Lys10 side-chain lactam ring; C-terminal amide; backbone N-methyl on Trp9 and Lys10 (alpha-MSH numbering 4-10)
B11: Peptide 16: Ac-Nle-c[Asp-(NMe)His-(NMe)nal-Arg-Trp-Lys]-NH2 (peptide)
peptide: LDHXRWK
modifications: N-terminal acetyl; Nle at 4; D-Nal(2') (nal) at 7; Asp5-Lys10 side-chain lactam ring; C-terminal amide; backbone N-methyl on His6 and nal7 (alpha-MSH numbering 4-10)
B12: Peptide 10: Ac-Nle-c[Asp-(NMe)His-nal-Arg-Trp-(NMe)Lys]-NH2 (peptide)
peptide: LDHXRWK
modifications: N-terminal acetyl; Nle at 4; D-Nal(2') (nal) at 7; Asp5-Lys10 side-chain lactam ring; C-terminal amide; backbone N-methyl on His6 and Lys10 (alpha-MSH numbering 4-10)
B13: Peptide 14: Ac-Nle-c[Asp-His-(NMe)nal-(NMe)Arg-Trp-Lys]-NH2 (peptide)
peptide: LDHXRWK
modifications: N-terminal acetyl; Nle at 4; D-Nal(2') (nal) at 7; Asp5-Lys10 side-chain lactam ring; C-terminal amide; backbone N-methyl on nal7 and Arg8 (alpha-MSH numbering 4-10)
B14: Peptide 32 (penta-N-methylated compound 32): Ac-Nle-c[Asp-(NMe)His-(NMe)nal-(NMe)Arg-(NMe)Trp-(NMe)Lys]-NH2 (peptide)
peptide: LDHXRWK
modifications: N-terminal acetyl; Nle at 4; D-Nal(2') (nal) at 7; Asp5-Lys10 side-chain lactam ring; C-terminal amide; backbone N-methyl on His6, nal7, Arg8, Trp9 and Lys10 (alpha-MSH numbering 4-10)
notes: NO; 32; No. 32 to the hMC1R antagonist

biological target: T1, human melanocortin 1 receptor (human, UniProt Q01726 1-317); experiment: competition with [125I]-NDP-alpha-MSH on A375 human melanoma cells
T1 construct: whole, on cells; also called hMC1R; hMC1 receptor
T1 sequence (Q01726 whole entry): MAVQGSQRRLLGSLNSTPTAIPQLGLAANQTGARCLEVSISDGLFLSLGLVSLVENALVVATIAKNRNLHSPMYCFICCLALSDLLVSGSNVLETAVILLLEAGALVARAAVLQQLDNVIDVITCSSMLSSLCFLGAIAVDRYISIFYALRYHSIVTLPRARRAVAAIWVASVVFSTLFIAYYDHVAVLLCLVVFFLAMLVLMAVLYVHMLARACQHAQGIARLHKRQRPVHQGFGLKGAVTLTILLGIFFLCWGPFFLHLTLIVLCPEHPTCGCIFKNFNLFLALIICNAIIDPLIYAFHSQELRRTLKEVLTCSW

IC50 [nM]	Binder
14.8	B1

biological target: T2, human melanocortin 3 receptor (human, UniProt P41968 1-323); experiment: assay not given; taken as the competition binding assay on HEK293 cells
T2 construct: whole, on cells; also called hMC3R; hMC3 receptor
T2 sequence (P41968 whole entry): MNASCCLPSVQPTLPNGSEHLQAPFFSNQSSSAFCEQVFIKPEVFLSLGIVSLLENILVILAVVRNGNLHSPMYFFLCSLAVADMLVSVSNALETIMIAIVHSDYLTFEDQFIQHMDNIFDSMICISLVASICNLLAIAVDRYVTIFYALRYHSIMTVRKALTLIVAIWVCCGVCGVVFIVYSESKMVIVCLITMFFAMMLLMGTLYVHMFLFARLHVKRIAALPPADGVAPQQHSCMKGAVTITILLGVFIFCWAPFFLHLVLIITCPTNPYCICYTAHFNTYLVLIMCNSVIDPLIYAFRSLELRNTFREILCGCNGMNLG

binding affinity [nM]	Binder
15	B1

biological target: T3, human melanocortin 5 receptor (human, UniProt P33032 1-325); experiment: competition with [125I]-NDP-alpha-MSH on whole HEK293 cells expressing the receptor
T3 construct: whole, on cells; also called hMC5R; hMC5 receptor
T3 sequence (P33032 whole entry): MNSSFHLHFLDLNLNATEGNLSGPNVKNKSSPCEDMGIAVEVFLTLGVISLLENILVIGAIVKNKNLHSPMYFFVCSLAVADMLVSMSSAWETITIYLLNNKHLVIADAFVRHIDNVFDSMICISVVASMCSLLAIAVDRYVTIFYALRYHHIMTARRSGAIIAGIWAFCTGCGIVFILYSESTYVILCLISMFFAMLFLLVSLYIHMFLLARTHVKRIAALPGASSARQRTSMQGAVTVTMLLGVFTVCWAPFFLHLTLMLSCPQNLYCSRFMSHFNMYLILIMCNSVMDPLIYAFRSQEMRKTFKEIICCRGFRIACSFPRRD

binding result	Binder
binds	B2
binds	B3
binds	B4
binds	B5
binds	B6
binds	B7
binds	B8
binds	B1
binds	B9
binds	B10
binds	B11
binds	B12
binds	B13

biological target: T1, human melanocortin 1 receptor; experiment: as above

IC50 [nM]	Binder
68	B14

— patent publication EP3177737B1 (Arizona Board of Regents on behalf of the University of …, dated 2020)
